Source: patent US7084111 (UNIVERSITY OF FLORIDA RESEARCH FOUNDATION, dated 2006)
Bridges are numbered along the chain shown (N, C = ends). Where no end group is shown, it is not given here. [ ]: non-standard residue; d: D form. Nle = CCCC[C@H](N)C(=O)O; Dap = NC[C@H](N)C(=O)O

Experiments:
Assay in all cases: cell-based or functional assay
[1] = biological target: mouse melanocortin-1 receptor (mouse, UniProt Q01727 1-315)
[2] = biological target: mouse melanocortin-5 receptor (mouse, UniProt P41149 1-325)
[3] = biological target: mouse melanocortin-3 receptor (mouse, UniProt P33033 1-323)
[4] = biological target: mouse melanocortin-4 receptor (mouse, UniProt P56450 1-332)
mouse melanocortin-4 receptor, sequence (P56450 whole entry): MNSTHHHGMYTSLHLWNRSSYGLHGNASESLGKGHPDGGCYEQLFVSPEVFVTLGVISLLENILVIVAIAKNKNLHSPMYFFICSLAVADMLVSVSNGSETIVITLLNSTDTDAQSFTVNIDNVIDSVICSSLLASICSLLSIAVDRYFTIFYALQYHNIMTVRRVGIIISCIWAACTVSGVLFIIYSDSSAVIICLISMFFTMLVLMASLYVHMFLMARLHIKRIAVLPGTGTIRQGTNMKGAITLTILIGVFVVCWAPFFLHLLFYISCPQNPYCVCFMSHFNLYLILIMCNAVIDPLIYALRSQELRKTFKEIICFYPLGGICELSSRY

mouse melanocortin-5 receptor, sequence (P41149 whole entry): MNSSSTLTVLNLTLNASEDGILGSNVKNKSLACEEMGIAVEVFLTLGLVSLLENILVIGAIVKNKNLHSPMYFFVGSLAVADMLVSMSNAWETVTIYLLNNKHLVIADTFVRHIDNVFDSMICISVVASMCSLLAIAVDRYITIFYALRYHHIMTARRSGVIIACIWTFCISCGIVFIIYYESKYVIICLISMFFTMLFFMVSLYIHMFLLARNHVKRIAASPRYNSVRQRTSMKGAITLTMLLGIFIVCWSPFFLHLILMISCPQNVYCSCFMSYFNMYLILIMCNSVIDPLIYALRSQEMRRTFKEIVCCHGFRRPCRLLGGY
mouse melanocortin-3 receptor, sequence (P33033 whole entry): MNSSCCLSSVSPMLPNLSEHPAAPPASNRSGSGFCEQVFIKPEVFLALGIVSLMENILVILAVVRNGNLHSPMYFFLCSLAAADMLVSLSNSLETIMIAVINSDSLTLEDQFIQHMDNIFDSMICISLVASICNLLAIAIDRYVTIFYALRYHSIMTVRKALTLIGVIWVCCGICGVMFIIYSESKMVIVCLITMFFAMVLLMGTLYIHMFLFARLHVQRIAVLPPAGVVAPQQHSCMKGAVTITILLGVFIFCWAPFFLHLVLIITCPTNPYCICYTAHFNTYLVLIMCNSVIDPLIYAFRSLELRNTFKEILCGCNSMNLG
mouse melanocortin-1 receptor, sequence (Q01727 whole entry): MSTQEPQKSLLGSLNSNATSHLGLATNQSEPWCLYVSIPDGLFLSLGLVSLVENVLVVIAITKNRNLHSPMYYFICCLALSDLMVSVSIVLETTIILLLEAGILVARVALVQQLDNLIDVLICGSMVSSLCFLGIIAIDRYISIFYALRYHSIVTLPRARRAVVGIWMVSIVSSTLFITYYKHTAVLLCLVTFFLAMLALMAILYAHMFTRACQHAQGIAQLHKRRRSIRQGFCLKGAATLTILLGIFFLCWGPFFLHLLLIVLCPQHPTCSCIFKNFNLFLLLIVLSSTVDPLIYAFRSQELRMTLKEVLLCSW

Binder | EC50 (agonist) [1] [µM] | EC50 (agonist) [2] [µM] | EC50 (agonist) [3] [µM] | EC50 (agonist) [4] [µM] | pA2 (antagonist) [3] | pA2 (antagonist) [4]
YDAXRWNAFXY (Asp-Dpr side chain lactam bridge; Dpr; DPhe; C-terminal amide (amide resin)) [SEQ ID NO:24 (Tyr-c[Asp-Ala-DPhe-Arg-Trp-Asn-Ala-Phe-Dpr]-Tyr)] | 0.0072 | 0.00046 | 0.029 | 0.00036 | – | –
YDFRWNAF[Dap]Y-NH2 (lactam 2-9) [SEQ ID NO:6 (Tyr-c[Asp-Phe-Arg-Trp-Asn-Ala-Phe-Dpr]-Tyr)] | 19.7 | 3.9 | – | 13.4 | – | –
YD[dF]RWNAF[Dap]Y-NH2 (lactam 2-9) [SEQ ID NO:7 (Tyr-c[Asp-DPhe-Arg-Trp-Asn-Ala-Phe-Dpr]-Tyr-NH2)] | 4.85 | 0.124 | – | 0.45 | – | –
Ac-SYS[Nle]EH[dR]FFGKPV-NH2 [SEQ ID NO:16 (Ac-Ser-Tyr-Ser-Nle-Glu-His-DArg-Phe-Phe-Gly-Lys-Pro-Val)] | – | – | > 100 | > 100 | – | –
YDWR[dF]NAF[Dap]Y-NH2 (lactam 2-9; N-terminus assumed; SMILES C[C@@H]1NC(=O)[C@H](CC(N)=O)NC(=O)[C@@H](Cc2ccccc2)NC(=O)[C@H](CCCNC(=N)N)NC(=O)[C@H](Cc2c[nH]c3ccccc23)NC(=O)[C@@H](NC(=O)[C@@H](N)Cc2ccc(O)cc2)CC(=O)NC[C@@H](C(=O)N[C@@H](Cc2ccc(O)cc2)C(N)=O)NC(=O)[C@H](Cc2ccccc2)NC1=O) [SEQ ID NO:5 (Tyr-c[Asp-Trp-Arg-DPhe-Asn-Ala-Phe-Dpr]-Tyr)] | 6.12 | 2.22 | – | 10.9 | – | –
Ac-SYS[Nle]EHRF[dF]GKPV-NH2 (SMILES CCCC[C@H](NC(=O)[C@H](CO)NC(=O)[C@H](Cc1ccc(O)cc1)NC(=O)[C@H](CO)NC(C)=O)C(=O)N[C@@H](CCC(=O)O)C(=O)N[C@@H](Cc1c[nH]cn1)C(=O)N[C@@H](CCCNC(=N)N)C(=O)N[C@@H](Cc1ccccc1)C(=O)N[C@H](Cc1ccccc1)C(=O)NCC(=O)N[C@@H](CCCCN)C(=O)N1CCC[C@H]1C(=O)N[C@H](C(N)=O)C(C)C) [SEQ ID NO:18 (Ac-Ser-Tyr-Ser-Nle-Glu-His-Arg-Phe-DPhe-Gly-Lys-Pro-Val)] | 3.63 | – | > 100 | > 100 | – | –
Ac-[Nle]DH[dR]FFK-NH2 (lactam 2-7) [SEQ ID NO:21 (Ac-Nle-c[Asp-His-DArg-Phe-Phe-Lys])] | > 100 | > 100 | > 100 | > 100 | – | –
Ac-[Nle]DHR[dF]FK-NH2 (lactam 2-7) [SEQ ID NO:22 (Ac-Nle-c[Asp-His-Arg-DPhe-Phe-Lys])] | 0.44 | 3.6 | 14.4 | 5 | – | –
Ac-[Nle]DHRF[dF]K-NH2 (lactam 2-7; SMILES CCCC[C@H](NC(C)=O)C(=O)N[C@H]1CC(=O)NCCCC[C@@H](C(N)=O)NC(=O)[C@@H](Cc2ccccc2)NC(=O)[C@H](Cc2ccccc2)NC(=O)[C@H](CCCNC(=N)N)NC(=O)[C@H](Cc2c[nH]cn2)NC1=O) [SEQ ID NO:23 (Ac-Nle-c[Asp-His-Arg-Phe-DPhe-Lys])] | 2.63 | – | – | > 100 | – | –
YDRFFNAF[Dap]Y-NH2 (lactam 2-9) [SEQ ID NO:3 (Tyr-c[Asp-Arg-Phe-Phe-Asn-Ala-Phe-Dpr]-Tyr)] | – | > 100 | – | – | 5.7 | 5.9
